The values below come from US20180291110A1 (Hoffmann-La Roche, published 2018).

What is called koff is the rate constant with which the complex falls apart.

B1: 2/99 VH1/VL1 (antibody, V domains shown)
VH: VQLVETGGGLIQPGGSLRLSCAASGFSLSSYAMSWVRQAPGKGLEWVGYIWSGGSTDYADSVKGRFTISRDNSKNTLYLQMNSLRAEDTAVYYCARRYGTSYPDYGDANGFDPWGQGTLVTVSS
VL: DIQMTQSPSSLSASVGDRVTITCRASQSISSYLNWYQQKPGKAPKLLIYRASSLQSGVPSRFSGSGSGTDFTLTISSLQPEDFATYYCQQSYSSSNVDNTFGGGTKVEIK
B2: 2/99 VH23-DANG/VL1 (antibody, V domains shown)
VH: QSMQESGPGLVKPSQTLSLTCTVSGFSLSSYAMSWIRQHPGKGLEWIGYIWSGGSTDYASWAKSRVTISKTSTTVSLKLSSVTAADTAVYYCARRYGTSYPDYGDANGFDPWGQGTLVTVSS
VL: DIQMTQSPSSLSASVGDRVTITCRASQSISSYLNWYQQKPGKAPKLLIYRASSLQSGVPSRFSGSGSGTDFTLTISSLQPEDFATYYCQQSYSSSNVDNTFGGGTKVEIK
B3: 2/99 VH17/VL1 (antibody, V domains shown)
VH: QQLQESGPGLVKPSETLSLTCTVSGFSLSSYAMSWVRQPPGKGLEWIGYIWSGGSTDYNPSLKSRVTISKDTSKNQVSLKLSSVTAADTAVYYCARRYGTSYPDYGDANGFDPWGPGTLVTVSS
VL: DIQMTQSPSSLSASVGDRVTITCRASQSISSYLNWYQQKPGKAPKLLIYRASSLQSGVPSRFSGSGSGTDFTLTISSLQPEDFATYYCQQSYSSSNVDNTFGGGTKVEIK
B4: 2/99 VH18/VL1 (antibody, V domains shown)
VH: QVQLQESGPGLVKPSQTLSLTCTVSGFSLSSYAMSWIRQHPGKGLEWIGYIWSGGSTDYAPSLKSRVTISVDTSKNQFSLKLSSVTAADTAVYYCARRYGTSYPDYGDANGFDPWGQGTLVTVSS
VL: DIQMTQSPSSLSASVGDRVTITCRASQSISSYLNWYQQKPGKAPKLLIYRASSLQSGVPSRFSGSGSGTDFTLTISSLQPEDFATYYCQQSYSSSNVDNTFGGGTKVEIK
B5: 2/99 VH15/VL1 (antibody, V domains shown)
VH: QQLQESGPGLVKPSETLSLTCTVSGFSLSSYAMSWVRQPPGKGLEWIGYIWSGGSTDYNPSLKSRVTISVDTSKNQVSLKLSSVTAADTAVYYCARRYGTSYPDYGDANGFDPWGQGTLVTVSS
VL: DIQMTQSPSSLSASVGDRVTITCRASQSISSYLNWYQQKPGKAPKLLIYRASSLQSGVPSRFSGSGSGTDFTLTISSLQPEDFATYYCQQSYSSSNVDNTFGGGTKVEIK
B6: 2/99 VH8/VL1 (antibody, V domains shown)
VH: QQLVETGGGLIQPGGSLRLSCAASGFSLSSYAMSWVRQAPGKGLEWIGYIWSGGSTDYASWAKGRFTISKTSTTLYLQMNSLRAEDTAVYYCARRYGTSYPDYGDANGFDPWGQGTLVTVSS
VL: DIQMTQSPSSLSASVGDRVTITCRASQSISSYLNWYQQKPGKAPKLLIYRASSLQSGVPSRFSGSGSGTDFTLTISSLQPEDFATYYCQQSYSSSNVDNTFGGGTKVEIK
B7: 2/99 VH6/VL1 (antibody, V domains shown)
VH: QQLVETGGGLIQPGGSLRLSCAASGFSLSSYAMSWVRQAPGKGLEWIGYIWSGGSTDYADSVKGRFTISRDNSKNTLYLQMNSLRAEDTAVYYCARRYGTSYPDYGDANGFDPWGQGTLVTVSS
VL: DIQMTQSPSSLSASVGDRVTITCRASQSISSYLNWYQQKPGKAPKLLIYRASSLQSGVPSRFSGSGSGTDFTLTISSLQPEDFATYYCQQSYSSSNVDNTFGGGTKVEIK
B8: 2/99 VH9/VL1 (antibody, V domains shown)
VH: QQLLESGGGLVQPGGSLRLSCAASGFTFSSYAMSWVRQAPGKGLEWVGYIWSGGSTDYADSVKGRFTISRDNSKNTLYLQMNSLRAEDTAVYYCAKRYGTSYPDYGDANGFDPWGQGTLVTVSS
VL: DIQMTQSPSSLSASVGDRVTITCRASQSISSYLNWYQQKPGKAPKLLIYRASSLQSGVPSRFSGSGSGTDFTLTISSLQPEDFATYYCQQSYSSSNVDNTFGGGTKVEIK
B9: 2/99 VH20/VL1 (antibody, V domains shown)
VH: QSMQESGPGLVKPSQTLSLTCTVSGFSLSSYAMSWIRQHPGKGLEWIGYIWSGGSTDYAPSLKSRVTISVDTSKNQVSLKLSSVTAADTAVYYCARRYGTSYPDYGDANGFDPWGQGTLVTVSS
VL: DIQMTQSPSSLSASVGDRVTITCRASQSISSYLNWYQQKPGKAPKLLIYRASSLQSGVPSRFSGSGSGTDFTLTISSLQPEDFATYYCQQSYSSSNVDNTFGGGTKVEIK
B10: 2/99 VH5/VL1 (antibody, V domains shown)
VH: QSMEETGGGLIQPGGSLRLSCAASGFSLSSYAMSWVRQAPGKGLEWVGYIWSGGSTDYADSVKGRFTISRDNSKNTLYLQMNSLRAEDTAVYYCARRYGTSYPDYGDANGFDPWGPGTLVTVSS
VL: DIQMTQSPSSLSASVGDRVTITCRASQSISSYLNWYQQKPGKAPKLLIYRASSLQSGVPSRFSGSGSGTDFTLTISSLQPEDFATYYCQQSYSSSNVDNTFGGGTKVEIK
B11: 2/99 VH13/VL1 (antibody, V domains shown)
VH: QVQLQESGPGLVKPSETLSLTCTVSGFSLSSYAMSWIRQPPGKGLEWIGYIWSGGSTDYNPSLKSRVTISVDTSKNQVSLKLSSVTAADTAVYYCARRYGTSYPDYGDANGFDPWGQGTLVTVSS
VL: DIQMTQSPSSLSASVGDRVTITCRASQSISSYLNWYQQKPGKAPKLLIYRASSLQSGVPSRFSGSGSGTDFTLTISSLQPEDFATYYCQQSYSSSNVDNTFGGGTKVEIK
B12: 2/99 VH2/VL1 (antibody, V domains shown)
VH: EVQLVETGGGLIQPGGSLRLSCAASGFSLSSYAMSWVRQAPGKGLEWVGYIWSGGSTDYADSVKGRFTISRDNSKNTLYLQMNSLRAEDTAVYYCARRYGTSYPDYGDANGFDPWGQGTLVTVSS
VL: DIQMTQSPSSLSASVGDRVTITCRASQSISSYLNWYQQKPGKAPKLLIYRASSLQSGVPSRFSGSGSGTDFTLTISSLQPEDFATYYCQQSYSSSNVDNTFGGGTKVEIK
B13: 2/99 VH1/VL2 (antibody, V domains shown)
VH: VQLVETGGGLIQPGGSLRLSCAASGFSLSSYAMSWVRQAPGKGLEWVGYIWSGGSTDYADSVKGRFTISRDNSKNTLYLQMNSLRAEDTAVYYCARRYGTSYPDYGDANGFDPWGQGTLVTVSS
VL: DIQMTQSPSSLSASVGDRVTITCRASQSISSYLNWYQQKPGKAPKLLIYRASTLASGVPSRFSGSGSGTDFTLTISSLQPEDFATYYCQQSYSSSNVDNTFGGGTKVEIK
B14: 2/99 VH11/VL1 (antibody, V domains shown)
VH: QQLLESGGGLVQPGGSLRLSCAASGFSLSSYAMSWVRQAPGKGLEWVGYIWSGGSTDYADSVKGRFTISRDNSKNTLYLQMNSLRAEDTAVYYCARRYGTSYPDYGDANGFDPWGQGTLVTVSS
VL: DIQMTQSPSSLSASVGDRVTITCRASQSISSYLNWYQQKPGKAPKLLIYRASSLQSGVPSRFSGSGSGTDFTLTISSLQPEDFATYYCQQSYSSSNVDNTFGGGTKVEIK
B15: 2/99 VH12/VL1 (antibody, V domains shown)
VH: QVQLQESGPGLVKPSETLSLTCTVSGFSLSSYAMSWIRQPPGKGLEWIGYIWSGGSTDYNPSLKSRVTISVDTSKNQFSLKLSSVTAADTAVYYCARRYGTSYPDYGDANGFDPWGQGTLVTVSS
VL: DIQMTQSPSSLSASVGDRVTITCRASQSISSYLNWYQQKPGKAPKLLIYRASSLQSGVPSRFSGSGSGTDFTLTISSLQPEDFATYYCQQSYSSSNVDNTFGGGTKVEIK
B16: 2/99 VH22/VL1 (antibody, V domains shown)
VH: QSMQESGPGLVKPSQTLSLTCTVSGFSLSSYAMSWVRQHPGKGLEWIGYIWSGGSTDYASWAKSRVTISVDTSKNQVSLKLSSVTAADTAVYYCARRYGTSYPDYGDANGFDPWGQGTLVTVSS
VL: DIQMTQSPSSLSASVGDRVTITCRASQSISSYLNWYQQKPGKAPKLLIYRASSLQSGVPSRFSGSGSGTDFTLTISSLQPEDFATYYCQQSYSSSNVDNTFGGGTKVEIK
B17: 2/99 VH16/VL1 (antibody, V domains shown)
VH: QQLQESGPGLVKPSETLSLTCTVSGFSLSSYAMSWVRQPPGKGLEWIGYIWSGGSTDYNPSLKSRVTISVDTSKNQVSLKLSSVTAADTAVYYCARRYGTSYPDYGDANGFDPWGPGTLVTVSS
VL: DIQMTQSPSSLSASVGDRVTITCRASQSISSYLNWYQQKPGKAPKLLIYRASSLQSGVPSRFSGSGSGTDFTLTISSLQPEDFATYYCQQSYSSSNVDNTFGGGTKVEIK
B18: 2/99 VH7/VL1 (antibody, V domains shown)
VH: QQLVETGGGLIQPGGSLRLSCAASGFSLSSYAMSWVRQAPGKGLEWIGYIWSGGSTDYASWAKGRFTISRDNSKNTLYLQMNSLRAEDTAVYYCARRYGTSYPDYGDANGFDPWGQGTLVTVSS
VL: DIQMTQSPSSLSASVGDRVTITCRASQSISSYLNWYQQKPGKAPKLLIYRASSLQSGVPSRFSGSGSGTDFTLTISSLQPEDFATYYCQQSYSSSNVDNTFGGGTKVEIK
B19: 2/99 VH21/VL1 (antibody, V domains shown)
VH: QSMQESGPGLVKPSQTLSLTCTVSGFSLSSYAMSWIRQHPGKGLEWIGYIWSGGSTDYASWAKSRVTISVDTSKNQVSLKLSSVTAADTAVYYCARRYGTSYPDYGDANGFDPWGQGTLVTVSS
VL: DIQMTQSPSSLSASVGDRVTITCRASQSISSYLNWYQQKPGKAPKLLIYRASSLQSGVPSRFSGSGSGTDFTLTISSLQPEDFATYYCQQSYSSSNVDNTFGGGTKVEIK
B20: 2/99 VH19/VL1 (antibody, V domains shown)
VH: QSMQESGPGLVKPSQTLSLTCTVSGFSLSSYAMSWIRQHPGKGLEWIGYIWSGGSTDYAPSLKSRVTISVDTSKNQFSLKLSSVTAADTAVYYCARRYGTSYPDYGDANGFDPWGQGTLVTVSS
VL: DIQMTQSPSSLSASVGDRVTITCRASQSISSYLNWYQQKPGKAPKLLIYRASSLQSGVPSRFSGSGSGTDFTLTISSLQPEDFATYYCQQSYSSSNVDNTFGGGTKVEIK
B21: 2/99 VH0(rb)/VL0(rb) (antibody, V domains shown)
VH: QSMEESGGRLVTPGTPLTLTCTVSGFSLSSYAMSWVRQAPGKGLEWIGYIWSGGSTDYASWAKGRFTISKTSTTVDLKITSPTTEDTATYFCARRYGTSYPDYGDANGFDPWGPGTLVTVSS
VL: AYDMTQTPASVEVAVGGTVTIKCQASQSISSYLSWYQQKPGQRPKLLIYRASTLASGVSSRFKGSGSGTQFTLTISGVECADAATYYCQQCYSSSNVDNTFGGGTEVVVKR
notes: 0 (rb) read as the rabbit parental domains of clone 2/99

The target of the assay is T1, human transferrin receptor (recombinant, for surface plasmon resonance) (human, UniProt P02786 89-760).
T1 construct: also called huTfR; human transferrin receptor-biotinylated
T1 sequence (P02786 89-760 limits assumed): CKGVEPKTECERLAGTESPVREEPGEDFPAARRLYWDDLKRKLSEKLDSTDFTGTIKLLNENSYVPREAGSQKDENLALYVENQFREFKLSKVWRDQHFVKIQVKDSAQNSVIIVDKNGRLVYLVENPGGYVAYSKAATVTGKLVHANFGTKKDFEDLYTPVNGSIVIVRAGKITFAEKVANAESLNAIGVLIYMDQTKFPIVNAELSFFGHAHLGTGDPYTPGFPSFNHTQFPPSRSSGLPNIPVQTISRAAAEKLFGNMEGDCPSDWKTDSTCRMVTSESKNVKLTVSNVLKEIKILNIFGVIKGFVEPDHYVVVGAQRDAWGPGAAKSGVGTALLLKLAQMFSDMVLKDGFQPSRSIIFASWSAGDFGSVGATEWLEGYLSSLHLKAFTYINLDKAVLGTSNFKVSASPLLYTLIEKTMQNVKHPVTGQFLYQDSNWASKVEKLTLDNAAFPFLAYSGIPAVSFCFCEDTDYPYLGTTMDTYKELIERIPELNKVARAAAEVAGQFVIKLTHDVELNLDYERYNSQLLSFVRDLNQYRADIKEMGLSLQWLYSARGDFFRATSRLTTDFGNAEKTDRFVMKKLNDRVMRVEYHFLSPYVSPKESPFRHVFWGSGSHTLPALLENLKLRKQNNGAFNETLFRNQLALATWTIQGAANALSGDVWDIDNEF
Description: SPR 25C.
For B1, the koff turned out to be 0.001 s⁻¹.
For the molecule B2, the dissociation rate constant (koff) was found to be 0.0028 s⁻¹.
Consider B3, for which the off-rate constant (koff) came to 0.00433 s⁻¹.
For B4, the koff came to 0.001 s⁻¹.
Under B5 stands 0.00772 s⁻¹; under B6, 0.00319 s⁻¹; under B7, 0.001 s⁻¹.
Take B8: the koff was 0.00694 s⁻¹.
Regarding B9, the dissociation rate constant (koff) was 0.001 s⁻¹.
With B10, the koff is 0.001 s⁻¹.
Under B11 stands 0.001 s⁻¹; under B12, 0.001 s⁻¹; under B13, 0.00286 s⁻¹.
Turning to B14, the koff is 0.001 s⁻¹.
In the case of B15, the koff came out at 0.001 s⁻¹.
Take B16: the dissociation rate constant (koff) came to 0.00578 s⁻¹.
On to B17, for which the koff came to 0.00771 s⁻¹.
Under B18 stands 0.00752 s⁻¹; under B19, 0.00771 s⁻¹.
In the case of B20, the koff was determined as 0.001 s⁻¹.
As to B21, the koff was determined as 0.000434 s⁻¹.
